Measured values from patent US20180016339A1 (University of Washington, published 2018).

Molecular target: T1, human MICB expressed on cells (TRAMP-MICB) (human, UniProt Q29980 23-383)
T1 construct: also called TC2 derivative TRAMP-MICB
T1 sequence: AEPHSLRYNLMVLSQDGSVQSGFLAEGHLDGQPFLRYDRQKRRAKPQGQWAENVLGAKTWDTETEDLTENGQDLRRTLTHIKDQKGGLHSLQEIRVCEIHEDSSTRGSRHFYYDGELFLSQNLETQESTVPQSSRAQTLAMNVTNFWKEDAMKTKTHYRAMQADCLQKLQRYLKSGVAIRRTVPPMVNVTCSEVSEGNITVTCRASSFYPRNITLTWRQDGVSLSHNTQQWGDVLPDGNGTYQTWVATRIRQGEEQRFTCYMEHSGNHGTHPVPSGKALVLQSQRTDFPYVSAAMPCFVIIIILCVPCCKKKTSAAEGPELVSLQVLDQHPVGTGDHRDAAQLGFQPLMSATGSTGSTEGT
Experiment: flow cytometry on TRAMP-MICB cells, 2 ug/ml antibody, PE goat anti-mouse IgG
Protocol: Cells were analyzed with BD FACSscan. Data were analyzed with CellQuest software.

binding result: binds
B1: monoclonal antibody P2B10G5 (antibody, V domains shown)
VH: EVQLEESGPGLVKPSQSLSLTCTVTGYSITSDYAWNWIRQFPGNKLEWMGYISYSGSTNYNPSLKSRISITRDTSKNQFFLQLNSVITEDTATYYCARGGTYFDYWGQGTTLTVSS
VL: DIVLTQTTSYLSVSLGGRVTIACKASAHINNWLAWYQQKPGNAPRLLISDATSLETGVPSRFSGSGSGKDYTLSITSLQTEDVATYYCQHYWSTPWTFGGGTKLEIKR
notes: Mouse hybridoma antibody, IgG1 kappa, raised against recombinant soluble MIC; also called mAb B10G5; anti-sMIC
